Measurements published in US20030059763A1, “Immunoglobulin class switch recombination” (priority 2001, published 2003).

B1: IL-4: cytokine purchased from R & D system (protein, UniProt P05112 25-153, looked up)
Interleukin-4: HKCDITLQEIIKTLNSLTEQKTLCTELTVTDIFAASKNTTEKETFCRAATVLRQFYSHHEKDTRCLGATAQQFHRHKQLIRFLKRLDRNLWGLAGLNSCPVKEANQSTLENFLERLKTIMREKYSKCSS
B2: IL-10: cytokine (protein, UniProt P22301 19-178, looked up)
Interleukin-10: SPGQGTQSENSCTHFPGNLPNMLRDLRDAFSRVKTFFQMKDQLDNLLLKESLLEDFKGYLGCQALSEMIQFYLEEVMPQAENQDPDIKAHVNSLGENLKTLRLRLRRCHRFLPCENKSKAVEQVKNAFNKLQEKGIYKAMSEFDIFINYIEAYMTMKIRN
B3: IFN-γ: cytokine (protein, UniProt P01579 24-161, looked up)
Interferon gamma: QDPYVKEAENLKKYFNAGHSDVADNGTLFLGILKNWKEESDRKIMQSQIVSFYFKLFKNFKDDQSIQKSVETIKEDMNVKFFNSNKKKRDDFEKLTNYSVTDLNVQRKAIHELIQVMAELSPAAKTGKRKRSQMLFRG

Experiments:
[1] = tested on: plasmid p77D3.11 (human Sμ and Sε); experiment: In vitro (cell-free) switch recombination assay, white vs blue colonies; type: biochemical; conditions: added to the recombination reaction; EDTA 10 mM
Protocol: Nuclear cell extracts from primary human B cells and cell lines were prepared by the Nonidet P-40 (NP-40) lysis method (Dyer and Herzog, BioTechniques 19:192-195 (1995)) with important modifications. Briefly, 10^8 (10^7 for cell lines) purified fresh human tonsillar B lymphocytes (Zhang et al., 1994, supra) were harvested following culture for 3 days with or without 0.1 μg/ml of anti-CD40 monoclonal antibody G28.5 (Zhang et al., 1994, supra) and were lysed with 1 ml of sucrose buffer (0.32 M sucrose, 3 mM CaCl2, 2 mM magnesium acetate, 0.1 mM EDTA, 10 mM Tris-HCl, pH 8.0, 1 mM DTT, 0.5 mM PMSF) containing 0.5% (vol/vol) NL-40 (BRL, Gaithersburg, Mich.). The cells were lysed immediately and the intact nuclei were pelleted by centrifugation at 2400 rpm/5 min at 4° C. The nuclei were washed twice (10^8 B cells/ml) with ice-cold sucrose buffer lacking NP-40. The pelleted nuclei were suspended in 50 μl/10^8 B cells with low-salt buffer (20 mM Hepes, pH 7,6, 25% glycerol, 1.5 mM MgCl2, 20 mM KCl, 0.2 mM EDTA, 0.5 mM DTT, 0.5 mM PMSF) followed by slowly adding 1 vol of high-salt buffer (20 mM Hepes, pH 7.6, 25% glycerol, 1.5 mM MgCl2, 800 mL KCl, 0.2 mM EDTA, 0.5 mM DTT, 0.5 mM PMSF) at 4° C. for 30 min with agitation for nuclear protein extraction. […] The concentration of the nuclear protein was determined by Bradford assay. […]

[2] = target: CD40 on human B lymphoma cell line Ramos 2G6 (stably transfected with switch constructs XF-1 / XF-5a) (human) (UniProt P25942); experiment: cell-based or functional assay
[3] = tested on: Ramos 2G6 cells stably transfected with XF-1; experiment: Substrate switch recombination (SSR), GFP positive cells by FACS, construct XF-1; type: cell-based, human; conditions: XF-1 cells; cytokines alone or in combination with CD40 mAb
From the text: (§1) The backbone of our switch substrate contained 1.6 Kb of the human Sμ (Zhang and Cheah, 2000, supra) and 1.8 Kb of the human Sγ2 regions (Mills et al, 1995, supra) under the transcriptional control of the CMV (pCMV) and the SV40 promoters (pSV40) respectively. A RSV LTR enhancer/promoter (pRC/RSV-LTR) and a GFP gene under the control of an internal ribosome entry site (IRES) were interposed between Sμ and Sγ2 in the reverse transcriptional orientation (FIG. 1A). Thus, the GFP gene will not be expressed within the gennline configuration of the construct. Detection of switch recombination between the Sμ and Sγ2 in the construct is based on the mechanism of the deletional recombination that excises and deletes the intervening DNA sequences between the Sμ and Sγ2. This excised sequence including the IRES-GFP expression unit forms an extrachromosomal circular DNA that is now under the transcriptional control of the pRSV-LTR (FIG. 1A). The RNA splice donor and acceptor sites permit uniform expression of the GFP from the excised circular DNA (FIG. 1A). Since the GFP gene is expressed only after the switch recombination (recombination or inversion, FIG. 1A) between the Sμ and Sγ2, switch recombination can be monitored in the cultured living cells in “real-time” by fluorescence microscopy. Furthermore, the frequency of switch recombination can be quantitatively measured by flow cytometry.
(§2) To test the potential roles of DNA sequences that may control or regulate the processes involved in switch recombination, the DNA fragments of interest were engineered into the basic switch construct (XF-1) to generate a series of modified switch constructs as diagrammed in the FIG. 1B. All the modified constructs were transfected into Ramos 2G6 cells as stable constructs to establish the switch cell lines. The integrity and copy number of the constructs were determined by Southern Blot analysis and PCR. Only subclones that contain a single copy of the construct were used. To distinguish the substrate switch recombination described here from switch recombination occurring at the intrinsic IgH loci (e.g., CSR), the former is abbreviated as SSR.
(§3) The human B lymphoma cell line Ramos 2G6 (ATCC, Rockville pike, Md.) and its subclones, L cells stably transfected with human CD40L (CD154) provided by D. Rawlings, UCLA), and CHO cells stably transfected with murinc CD40L (Immunex Inc, Seattle, Wash.) were maintained and cultured in complete PRMI 1640 (Zhang et al, 1994, supra). One million cells in 0.2 ml were transfected with 10 μg plasmid DNA by electroporation (200V, 0.975 μF). Genicitin (G418) was added to cultures two days later for clonal selection and the levels increased over four week to concentrations that were previously determined by dosage titration for the different cell lines.
(§4) The expression of GFP in cell lines stably transfected with switch vectors following various stimulated culture conditions was measured by either single- or dual-color flow cytometry (FACS Core laboratory, UCLA). The data were analyzed with FCS express software (De Novo software Inc, Thornhill, Ontario, Canada).

Ramos 2G6/XF-5a.1 cells = experiment: Substrate switch recombination (SSR), GFP positive cells by FACS, construct XF-5a; type: cell-based, human; conditions: for effect on SSR: XF-5a / XF-5a.1 cells, antibodies 1 μg/ml, cytokines 5 ng/ml alone or with CD40 mAb
From the text: pXF-5a: A PCR amplified 356 bp fragment containing Iε exon and its 5′ promoter region (pIε) was inserted into Xho I and Xba I sites in pXF-1.
as §1, §2, §3, §4

[4] = tested on: Ramos 2G6 cells stably transfected with XF-2b; experiment: Substrate switch recombination (SSR), construct XF-2b; type: cell-based, human; conditions: XF-2b cells
From the text: pXF-2b: The CMV promoter in pXF-2a was deleted by removal of the Ase I and Xho I fragment.
as §2
as §3, with “One million cells in 0.2 ml were transfected with 10 μg plasmid DNA by electroporation (200V, 0.975 μF).” left out, “lines. […]” for “lines.”

[5] = tested on: Iε-Cε1′ transcripts in Ramos 2G6/XF-5a.1 cells; experiment: RT-PCR of processed Iε-Cε1′ transcripts from the construct; type: cell-based, human; conditions: 48 hours, IL-4 1 ng/ml, CD40 mAb 1 μg/ml
Protocol: The cells were cultured in the presence of IL-4 (1 ng/ml) and CD40 mAb (1 μg/ml) for 48 hours following by RNA preparation and RT-PCR. Total RNA (2 μg) was used for reverse-transcription and cDNA derived from 0.2 μg of RNA was subject to PCR amplification using the primers diagrammed in the FIG. 7B. The ratio of SSR from the cultures (assayed at day 5) is shown in the bottom. […] Diagrams of the formation of the “germ line” transcripts Iε-Cε1′ from the transgenes and the Iε-Cε2 from the endogenous IgH ε locus are shown in the FIG. 7B. The arrows represent the positions of the primers used for PCR.
PCR and […] (RT-PCR) were performed as described previously (Zhang et al, 1994, supra; Zhang and Cheah, 2000, supra). For amplification of the Sμ-Sγ2 products, genomic DNA from the stably transfected Ramos 2G6 cells was amplified with PCR Kit for GC-rich DNA (Clonetech, Palo Alto, Calif.). […]
The role of transcriptional activity vs. SSR was further investigated using Ramos 2G6/XF-5a.1. As the XF-5a construct contains the Iε exon and a Cε1 exon (referred to as Cε1′) that is able to form processed transcripts through RNA splicing, transcriptional activity of the construct can be semi-quantitatively determined by measuring the Iε-Cε1′ transcripts by RT-PCR (FIG. 7). […]

CD40 on human B lymphoma cell line Ramos 2G6 (stably transfected with switch constructs XF-1 / XF-5a) (human), sequence (P25942 21-277): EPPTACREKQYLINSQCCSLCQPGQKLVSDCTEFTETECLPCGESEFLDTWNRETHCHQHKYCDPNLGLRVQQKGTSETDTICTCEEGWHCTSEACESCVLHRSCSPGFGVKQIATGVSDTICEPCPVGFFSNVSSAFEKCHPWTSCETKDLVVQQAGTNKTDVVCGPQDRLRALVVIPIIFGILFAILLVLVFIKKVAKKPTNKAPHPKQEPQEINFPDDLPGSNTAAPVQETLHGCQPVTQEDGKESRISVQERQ

| Molecule | effect on SSR frequency [3] | effect on SSR (Ramos 2G6/XF-5a.1 cells) | also measured |
| --- | --- | --- | --- |
| O=C(O)CN(CCN(CC(=O)O)CC(=O)O)CC(=O)O [EDTA] |  |  | effect on recombination activity [1]: almost completely blocked the activity |
| Anti-CD40 mAb G28.5 (antibody) |  |  | GFP expression level (percent of cells), Ramos 2G6/XF-5a.1, in the presence of IL-4 [2]: > 50%; SSR frequency (percent GFP positive cells), Ramos 2G6/XF-5a.1, without IL-4 [2]: 3.2%; SSR rate (percent GFP positive cells), Ramos 2G6 with construct XF-1 [2]: 1.9% |
| IL-5: cytokine | did not increase | did not increase |  |
| IL-6: cytokine | did not increase | did not increase |  |
| TGF-β | did not increase | did not increase |  |
| B1 | marginal effects | limited effects | GFP expression, plateau of IL-4 dose-response (Ramos 2G6/XF-5a.1 cells; XF-5a cells, in the presence of CD40 mAb (1 μg/ml), plateau at 3 ng/ml IL-4): around 50%; SSR [4]: efficient SSR did not result; change of level of processed Iε-Cε1′ transcripts over pCMV-driven level [5]: minimally increased |
| B2 | did not increase | did not increase |  |
| B3 | did not increase | did not increase |  |
